Test results taken from US20210009693A1 (MABSPACE BIOSCIENCES SUZHOU, published 2021).
Each block holds one binder with its values, some of them ahead of it.

Tests used:
hPD-L2-Fc = target: T1, hPD-L2-Fc (human, UniProt Q9BQ51 20-219); experiment: ELISA, plate coated with hPD-L2-Fc
T1 construct: Acrobiosystems PD2-H5251; also called human PD-L2 protein; not shown: Fc tag
T1 sequence (looked up): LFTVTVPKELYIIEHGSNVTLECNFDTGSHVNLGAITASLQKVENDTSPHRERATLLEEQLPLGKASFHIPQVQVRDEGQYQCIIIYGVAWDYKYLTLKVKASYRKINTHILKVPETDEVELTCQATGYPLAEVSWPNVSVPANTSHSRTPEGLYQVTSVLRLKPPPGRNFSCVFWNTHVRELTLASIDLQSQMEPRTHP
Description: Briefly, high-binding clear polystyrene 96 well plates (Nunc) were coated with 100 μl/well of a 0.5 μg/ml human PD-L1-Fc (Acrobiosystems, Cat #PD1-H5258) or 100 μl/well of a 1 μg/ml hPD-L2-Fc (Acrobiosystems, Cat #PD2-H5251), respectively, in high pH coating buffer (0.16% Na2CO3+0.3% NaHCO₃, pH 9.8) and incubated overnight at 4° C. Then the plates were washed once on an automatic plate washer using washing buffer (PBS+0.1% Tween 20 (Amresco)). 200 μl of blocking buffer (PBS+1% BSA+1% normal goat serum+0.05% Tween-20) was added to each well and incubated for 2 hours at room temp. Then add 100 μl 2 μg/ml purified PD-L1 antibodies with dilution buffer (PBS+1% BSA+1% normal goat serum+0.01% Tween-20) and incubate for 1 hour at RT. The plates were then washed 3 times with washing buffer. 100 μl/well of a solution of HRP conjugated goat anti-mouse IgG antibody (1:20000, Abcam) in dilution buffer was then added to each well of the plate. After that the ELISA plates were allowed to incubate for 60 min at RT then the plates were washed 3 times with 250 μl/well washing buffer. Finally, 100 μl/well of TMB was added to each well for 15 min and the reaction was terminated using 50 ul/well of 0.16 M/L sulfuric acid. The plates were read on a Thermo Multiscan FC at 450 nM (see FIG. 6G).

[1] = target: T2, wild type human PD-L1-Fc protein (SEQ ID NO: 107) (human); experiment: ELISA on captured PD-L1-Fc, as in Example 18A
T2 construct: Extracellular human PD-L1 (amino acid 19-238) with Fc fragment of human IgG1, expressed in 293T cells and used as culture supernatant; also called WT PD-L1; wild-type PD-L1
T2 sequence (chain, as listed by the source limits assumed): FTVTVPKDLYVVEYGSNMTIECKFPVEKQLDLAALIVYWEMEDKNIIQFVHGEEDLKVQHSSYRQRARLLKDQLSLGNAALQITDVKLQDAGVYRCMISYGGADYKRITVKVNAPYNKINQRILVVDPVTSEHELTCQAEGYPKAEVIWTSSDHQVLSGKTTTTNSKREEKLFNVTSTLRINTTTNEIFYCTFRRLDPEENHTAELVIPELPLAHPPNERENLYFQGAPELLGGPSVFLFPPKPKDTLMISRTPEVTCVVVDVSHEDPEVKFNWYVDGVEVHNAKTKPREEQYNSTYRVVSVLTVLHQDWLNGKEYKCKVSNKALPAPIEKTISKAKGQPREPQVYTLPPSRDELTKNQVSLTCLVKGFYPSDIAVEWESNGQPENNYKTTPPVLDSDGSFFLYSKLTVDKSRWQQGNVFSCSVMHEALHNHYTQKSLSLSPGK

[2] = target: T3, human PD-L1-Fc mutant E58A (human); experiment: ELISA on captured PD-L1-Fc, as in Example 18A
T3 construct: Position 58 counts on native human PD-L1 (NP_054862.1); also called E58A mutant
T3 sequence (chain, as listed by the source E58A E58A limits assumed): as the sequence (chain, as listed by the source limits assumed) above, with E40A counted along it

[3] = target: T4, human PD-L1 expressed on cells (human, UniProt Q9NZQ7 19-290); experiment: FACS, IFN-gamma stimulated HCC827 cells
T4 construct: whole, on cells; also called hPD-L1 expressed on HCC827; hPD-L1 on MC38/hPD-L1 cells
T4 sequence (Q9NZQ7 19-290): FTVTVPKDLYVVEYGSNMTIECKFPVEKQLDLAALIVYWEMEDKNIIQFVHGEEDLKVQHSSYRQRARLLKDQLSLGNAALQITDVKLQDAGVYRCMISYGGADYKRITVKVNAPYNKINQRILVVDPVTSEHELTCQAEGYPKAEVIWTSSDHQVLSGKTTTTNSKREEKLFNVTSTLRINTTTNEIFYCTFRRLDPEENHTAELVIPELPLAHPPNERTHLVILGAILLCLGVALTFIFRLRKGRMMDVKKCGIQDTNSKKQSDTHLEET
Description: Log phase IFN-γ stimulated (500U/ml for 2 days) HCC827 cells were collected and resuspended in blocking buffer (5% BSA+PBS). 2×10\hat{ }5 cells were added to each tube and then washed once with PBS (1500 rpm, 5 mins, RT). The 100 μl/tube serial diluted PD-L1 antibodies purified from hybridoma supernatant in blocking buffer were added into corresponding tubes and were incubated at 4° C. for 1 hr. The cells were then washed twice with 1 ml PBS, followed by adding 100 μl/tube of 2nd antibody (1:400 anti-mIgG (H+L)-PE, Cell signaling) in blocking buffer. The cells were incubated at 4° C. for 1 hr and then washed twice with PBS, followed by resuspending cells in 150 μl PBS for each sample. The cells were then transferred into FACS tube and the bindings of the antibodies to the cells were detected using flow cytometry (BD Accuri C6) (see FIG. 5A).

[4] = target: T5, Recombinant Human PD-L1/CD274 Protein (hPD-L1-his) (human, UniProt Q9NZQ7 19-238); experiment: ELISA, purified mouse antibody on coated hPD-L1-his
T5 construct: range 19-238; ACRO Biosystem PD1-H5229, made in HEK293; also called human PD-L1-his; hPD-L-his
T5 sequence (Q9NZQ7 other isoform, or with tags, fused parts or gaps limits assumed): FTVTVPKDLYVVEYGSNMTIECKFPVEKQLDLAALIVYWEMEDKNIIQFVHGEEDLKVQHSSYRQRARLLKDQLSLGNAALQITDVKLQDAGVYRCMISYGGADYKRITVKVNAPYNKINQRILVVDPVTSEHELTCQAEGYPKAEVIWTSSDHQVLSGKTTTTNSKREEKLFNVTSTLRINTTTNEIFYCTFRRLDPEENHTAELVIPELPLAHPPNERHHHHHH
Description: High-binding clear polystyrene 96 well plates (Nunc) were coated with 100 μl/well of a 0.5 μg/ml hPD-L1-his in high pH coating buffer and incubated overnight 4° C. Then plates were washed once on an automatic plate washer using washing buffer (PBS+0.1% Tween 20 (Sigma)). 200 μl of blocking buffer (PBS+1% BSA+1% normal goat serum+0.05% Tween-20) was added to each well and incubated 2 hours at room temp. Then add serially diluted purified antibodies with dilution buffer (PBS+1% BSA+1% normal goat serum+0.01% Tween-20) and incubate for 1 hour at RT. The plates were then washed 3 times using the method described above. 100 μl/well of a solution of HRP conjugated goat anti-mouse Fc antibody (Abcam) in dilution buffer was then added to each well of the plate. After that the ELISA plates were allowed to incubate for 60 min at RT then plates were washed 3 times with 250 μl/well washing buffer. Finally, 100 μl/well of TMB was added to each well and was terminated using 0.64M H₂SO₄. The plates were read on a Thermo Multiscan FC at 450 nM (see FIG. 3).

[5] = target: T6, Recombinant Mouse PD-L1/CD274 Protein (mPD-L1-his) (mouse, UniProt Q9EP73 19-238); experiment: ELISA, 20 ug/ml antibody on coated mouse PD-L1 (his-tagged per text, mPD-L1-Fc per sheet title)
T6 construct: range 19-238; ACRO Biosystem PD1-M5220; also called mouse PD-L1-his
T6 sequence (Q9EP73 other isoform, or with tags, fused parts or gaps limits assumed): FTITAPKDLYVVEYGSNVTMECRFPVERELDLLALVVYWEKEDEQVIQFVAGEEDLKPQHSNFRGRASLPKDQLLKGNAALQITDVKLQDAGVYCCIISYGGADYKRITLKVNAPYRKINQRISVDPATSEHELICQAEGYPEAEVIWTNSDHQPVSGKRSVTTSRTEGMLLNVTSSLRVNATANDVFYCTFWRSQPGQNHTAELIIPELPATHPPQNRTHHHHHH
Description: High-binding clear polystyrene 96 well plates (Nunc) were coated with 100 μl/well of 1 μg/ml mouse PD-L1-his in high pH coating buffer and incubated overnight at 4° C. Then plates were washed once on an automatic plate washer using washing buffer (PBS+0.1% Tween 20 (Sigma)). 200 μl of blocking buffer (PBS+1% BSA+1% normal goat serum+0.05% Tween-20) was added to each well and incubated for 2 hours at room temp. Then add 20 μg/ml purified hybridoma mouse antibodies in dilution buffer (PBS+1% BSA+1% normal goat serum+0.01% Tween-20) and incubate for 1 hour at RT. The plates were then washed 3 times with 250 μl/well washing buffer. 100 μl/well of a solution of HRP conjugated goat anti-mouse Fc antibody (Abcam) in dilution buffer was then added to each well of the plate. After that the ELISA plates were allowed to incubate for 60 min at RT then plates were washed 3 times with 250 μl/well washing buffer. Finally, 100 μl/well of TMB was added to each well and the reaction was terminated using 0.64M H₂SO₄. The plates were read on a Thermo Multiscan FC at 450 nM (see FIG. 6F).

[6] = target: T5, Recombinant Human PD-L1/CD274 Protein …; experiment: ELISA, coated hPD-L1-his, acidic wash and incubation after binding at pH7.4
Description: (§1) The pH-dependent binding affinity was further measured at various pH values, such as pH4, pH4.5, pH5.0, pH5.5, pH6.0, pH7.4. The measurement by ELISA was conducted similarly to the method described above. High-binding clear polystyrene 96 well plates were coated with 100 μl/well of a 0.5 μg/ml hPD-L1-his in high pH coating buffer and incubated overnight at 4° C. Then the coated plates were washed 3 times with shaking for 10s on an automatic plate washer with PBS+0.1% Tween 20 (Amresco). Then 200 μl of blocking buffer (1% BSA (Solarbio)+1% normal goat serum (Solarbio)+0.05% Tween 20 (Amresco)) was added to each well and the plates were then incubated for 2 hours at room temperature and washed 3 times as above. […] The plates were then washed once with 250 μl/well washing buffer at pH7.4, pH6.0, pH5.5, pH5.0, pH4.5 or pH4.0 and then 100 μl/well pH7.4 or pH5.5 washing buffer was added and the incubation was continued for 2 hours at RT with shaking. Afterwards, the plates was washed 3 times washing buffer at pH7.4 and 100 μl/well of a solution of HRP conjugated goat anti-hIgG HRP antibody (1:20000, Abcam) in pH7.4 dilution buffer was then added to each well of the plate. After that the plates were allowed to incubate for 60 min at room temperature followed by washing 3 times with 250 μl/well pH7.4 washing buffer. Finally, 100 μl/well of TMB was added to each well for 15 min and the reaction was terminated using 50 μl/well of 0.16M/L sulfuric acid. The plates were read on a Thermo Multiscan FC at 450 nm (see FIG. 23A-23F). The measurements were performed in triplicate.

[7] = target: T5, Recombinant Human PD-L1/CD274 Protein …; experiment: ELISA on coated hPD-L1-his; bound at pH7.4, then 2 h at pH7.4
Description: as §1

- binding result (hPD-L2-Fc): no binding (tested: 2 ug/ml)
- Mean OD450 [1]: 1.49 OD450
- OD450 nM of sample-1 [1]: 1.43 OD450
- OD450 nM of sample-2 [1]: 1.54 OD450
- % of binding of Ab to E58A mutant vs. that to WT PD-L1 [2]: 69.6%
- Mean OD450 [2]: 1.04 OD450
- OD450 nM of sample-1 [2]: 1.06 OD450
- OD450 nM of sample-2 [2]: 1.01 OD450
- EC50 (read off the curve) [3]: ~0.04 µg/mL
- EC50 (read off the curve) [4]: ~0.01 µg/mL
- binding result [5]: no binding (tested: 20 ug/ml)
B1: 4B6 (antibody, V domains shown)
VH: EVQLQQSGPELVKPGASVKISCKASGYVFTDYYMNWVKQSHGKSLEWIGDINPNNGGTSYNHKFKGKATVTVDKSSRTAYMELLSLTSEDSAVYYCVKWGDGPFAYWGQGTLVTVSA
VL: DIVMTQSQKFMSTSVGDRVSITCKASQNVGAAVAWYQQKPGQSPKLLIYSASNRYTGVPDRFTGSGSGTDFTLTISNMQSEDLADYFCQQYSNYPTFGSGTKLGIK
notes: Mouse monoclonal purified from hybridoma; also called mouse monoclonal antibody 4B6

- binding signal at pH5 as percent of the signal at pH7.4 [6]: < 50%
- binding signal at pH5.5 as percent of the signal at pH7.4 [6]: < 75%
- EC50 (read off the curve) [7]: ~0.06 µg/mL
B2: 22C9-C (antibody, V domains shown)
VH: QVQLQQSGAELVKPGASVKLSCKASGYTFTSYWMHWVWQRPGQGLEWIGMIHPNSDITNCNENFKHTVTLTVDKSSSTAYMQLSSLTSEDSAVFYCARSDGSSYWYFDVWGTGTTVTVSS
VL: SIVMTQTPKFLSVSAGDRVTITCKAGQSVNNDVAWYQQKPGQSPKLLIYYASNRYTGVPDRFTGSGYGTDFTFTISTVQAEDLAVYFCQQDFSSPLTFGAGTKLELK
notes: Mouse variable regions fused to a human IgG1 constant region; also called 22C9-chimeric; chimeric antibody 22C9

- binding result (hPD-L2-Fc): no binding (tested: 2 ug/ml)
- Mean OD450 [1]: 1.71 OD450
- OD450 nM of sample-1 [1]: 1.65 OD450
- OD450 nM of sample-2 [1]: 1.76 OD450
- % of binding of Ab to E58A mutant vs. that to WT PD-L1 [2]: 9.9%
- Mean OD450 [2]: 0.338 OD450
- OD450 nM of sample-1 [2]: 0.383 OD450
- OD450 nM of sample-2 [2]: 0.292 OD450
- EC50 (read off the curve) [3]: ~0.07 µg/mL
- EC50 (read off the curve) [4]: ~0.006 µg/mL
- binding result [5]: no binding (tested: 20 ug/ml)
B3: 23F11 (antibody, V domains shown)
VH: QVQLQQPGAELVKPGASVKLSCKASGYSFTTYWMHWVKQRPGQGLEWIGMIQPNSGGTKYNEKFKKKATLTVDKSSTTASMELSSLTSEDSAVYYCARGAGTVDYFDYWGQGSTLTVSS
VL: DIVLTHSPVSLAVSLGQRATISCRASESVDIYGNSFMHWYQQKPGQPPKLLIYRASNLESGIPARFSGSGSRTDFTLTINPVEADDVATYYCQQSTEDPYTFGGGTKLEIK
notes: also called mouse monoclonal antibody 23F11; clone 23F11
